For data set [1], the system named is AcrIF24 (Pseudomonas aeruginosa prophage). In words: EMSA. The settings on record: EMSA: 20 mM HEPES pH 7.5, 150 mM NaCl, 5% glycerol, 37 C 30 min, 1 uM DNA (20 nM for Kd), MST: 20 mM HEPES pH 7.5, 150 mM KCl. In general terms: A gel shift assay detects complexes by their altered migration in electrophoresis.
The subject of data set [2] is AcrIF24ΔMD (Pseudomonas aeruginosa prophage). In words: EMSA. The following applies: EMSA: 20 mM HEPES pH 7.5, 150 mM NaCl, 5% glycerol, 37 C 30 min, 1 uM DNA (20 nM for Kd), MST: 20 mM HEPES pH 7.5, 150 mM KCl.
The target in data set [3] is AcrIF24 (full-length, wild type) (Pseudomonas aeruginosa prophage). In words: SEC-MALS; Superdex-200 10/300 GL, 20 mM HEPES pH 7.5, 200 mM NaCl; AcrIF24 1.5 mg/mL, AcrIF24ΔMD 15 mg/mL; gel filtration coupled with static light scattering. A general note: SEC sorts molecules by how far they enter the pores of the column.
Data set [4] concerns the target crRNA-guided surveillance complex (Csy complex) of the type I-F CRISPR-Cas system from P. aeruginosa (P. aeruginosa) (UniProt Q02ML9). Kind of data set: SEC-MALS; mix of AcrIF24 and Csy complex (7.5 mg/mL), AcrIF24:Csy 1:1; Superdex-200 10/300 GL, 20 mM HEPES pH 7.5, 200 mM NaCl.
The target is the same in data set [5]. In words: SEC-MALS; mix of AcrIF24 and Csy complex (7.5 mg/mL), AcrIF24:Csy 1:5; Superdex-200 10/300 GL, 20 mM HEPES pH 7.5, 200 mM NaCl.
The target is the same in data set [6]. In words: SEC-MALS; mix of AcrIF24 and Csy complex (7.5 mg/mL), AcrIF24:Csy 5:1; Superdex-200 10/300 GL, 20 mM HEPES pH 7.5, 200 mM NaCl.
Data set [7] shares this target. Kind of data set: SPR; Biacore 8K, 25 °C; Csy complex immobilised on a CM5 chip (~10,000 RU), AcrIF24 injected; 20 mM HEPES pH 7.5, NaCl, 0.05% Tween-20; 1:1 Langmuir model.
The target in data set [8] is AcrIF24 Δmiddle domain (Pseudomonas aeruginosa prophage). In words: SEC-MALS; Superdex-200 10/300 GL, 20 mM HEPES pH 7.5, 200 mM NaCl; AcrIF24 1.5 mg/mL, AcrIF24ΔMD 15 mg/mL; gel filtration coupled with static light scattering.
Data set [9] deals with crRNA-guided surveillance complex (Csy complex) of the type I-F CRISPR-Cas system from P. aeruginosa (P. aeruginosa) (UniProt Q02ML9). In words: SEC-MALS; co-expressed and purified Csy-AcrIF24 complex, 1.5 mg/mL; Superdex-200 10/300 GL, 20 mM HEPES pH 7.5, 200 mM NaCl.
Data set [10] addresses Csy complex;AcrIF24 (Pseudomonas aeruginosa;Pseudomonas aeruginosa prophage) (UniProt Q02ML9+Q02MM0+Q02MM1+Q02MM2). In words: MST. The following applies: Kd only in figure, EMSA: 20 mM HEPES pH 7.5, 150 mM NaCl, 5% glycerol, 37 C 30 min, 1 uM DNA (20 nM for Kd), MST: 20 mM HEPES pH 7.5, 150 mM KCl.
In data set [11] the target is Csy complex;AcrIF9 (Pseudomonas aeruginosa;) (UniProt Q02ML9+Q02MM0+Q02MM1+Q02MM2). Kind of data set: MST. The settings on record: Kd only in figure, EMSA: 20 mM HEPES pH 7.5, 150 mM NaCl, 5% glycerol, 37 C 30 min, 1 uM DNA (20 nM for Kd), MST: 20 mM HEPES pH 7.5, 150 mM KCl.
The next data set concerns the target T1, Csy complex (Pseudomonas aeruginosa, UniProt Q02ML9;Q02MM0;Q02MM1;Q02MM2 1-434;1-327;1-342;1-187).
T1 sequence 1: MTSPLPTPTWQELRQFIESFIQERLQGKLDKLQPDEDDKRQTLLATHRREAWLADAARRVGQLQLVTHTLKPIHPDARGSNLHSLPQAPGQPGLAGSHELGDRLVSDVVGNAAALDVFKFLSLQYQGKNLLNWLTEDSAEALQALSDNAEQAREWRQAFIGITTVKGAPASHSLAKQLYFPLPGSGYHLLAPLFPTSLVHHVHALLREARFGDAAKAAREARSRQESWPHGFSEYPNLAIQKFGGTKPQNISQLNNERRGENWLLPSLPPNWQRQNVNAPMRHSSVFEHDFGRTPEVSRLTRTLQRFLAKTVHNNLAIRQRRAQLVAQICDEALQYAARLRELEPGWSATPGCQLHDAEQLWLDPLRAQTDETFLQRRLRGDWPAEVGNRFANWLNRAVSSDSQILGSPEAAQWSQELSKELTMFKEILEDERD
T1 sequence 2: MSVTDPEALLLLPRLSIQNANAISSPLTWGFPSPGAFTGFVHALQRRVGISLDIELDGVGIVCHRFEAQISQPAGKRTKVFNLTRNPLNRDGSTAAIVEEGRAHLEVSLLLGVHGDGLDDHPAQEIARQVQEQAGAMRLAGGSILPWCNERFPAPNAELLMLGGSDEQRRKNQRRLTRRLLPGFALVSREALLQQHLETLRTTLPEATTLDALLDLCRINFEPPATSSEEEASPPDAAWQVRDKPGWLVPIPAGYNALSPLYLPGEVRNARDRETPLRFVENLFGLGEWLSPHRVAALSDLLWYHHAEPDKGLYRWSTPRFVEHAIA
T1 sequence 3: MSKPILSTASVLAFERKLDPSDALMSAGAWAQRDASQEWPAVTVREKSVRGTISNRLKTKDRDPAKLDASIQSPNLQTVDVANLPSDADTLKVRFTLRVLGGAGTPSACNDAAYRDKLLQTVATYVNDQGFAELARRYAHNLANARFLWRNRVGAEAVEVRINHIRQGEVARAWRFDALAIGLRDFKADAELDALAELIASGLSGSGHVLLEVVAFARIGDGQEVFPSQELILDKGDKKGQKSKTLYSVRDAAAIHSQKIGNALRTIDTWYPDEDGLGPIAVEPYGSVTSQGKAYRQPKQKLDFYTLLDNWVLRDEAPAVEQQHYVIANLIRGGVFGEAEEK
T1 sequence 4: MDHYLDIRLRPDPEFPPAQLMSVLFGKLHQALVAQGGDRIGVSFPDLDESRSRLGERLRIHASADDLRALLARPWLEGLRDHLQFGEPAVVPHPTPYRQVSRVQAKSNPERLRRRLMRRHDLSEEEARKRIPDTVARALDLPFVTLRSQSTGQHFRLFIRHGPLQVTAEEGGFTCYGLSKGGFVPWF
In words: EMSA; EMSA: 20 mM HEPES pH 7.5, 150 mM NaCl, 5% glycerol, 37 C 30 min, 1 uM DNA (20 nM for Kd); MST: 20 mM HEPES pH 7.5, 150 mM KCl, 5% glycerol. The following applies: protein: recombinant, copies: 1;1;6;1, blunt.

Several values for one entry are separate records, joined by “and”; a condition that tells them apart may be missing. Equal entries are not always repeated.

A word on the Kd: it is the concentration at which binding is half-saturated. A higher Kd goes with a looser complex. For “GAGCGACTACGACATGAGCGCGCAGCTAAGACCGCCCGTAGATGCGTCGAGCGT (double strand) [dsDNANS 54 bp]”, in data set [1], the Kd turned out to be 3460 nM. This lies in the single-digit micromolar range.
With “GCATAGCTCGATCCGAGCTAGTA (double strand) [IR23-24 WT]”, the Kd in data set [2] amounted to 49.1 nM; in data set [1], 20.2 nM.
The term stoichiometry N denotes the number of molecules, sites or subunits per partner or assembly. For orientation: koff means the rate constant with which the complex falls apart. Read a high koff as a short-lived complex. What is called kon is the rate constant with which the complex forms. “AcrIF24 (full-length, wild type) (natural protein)” came in with a stoichiometry N in [3] of 2. The molecule also yielded a stoichiometry N (AcrIF24 per Csy complex) in data set [4] of 1. The stoichiometry N (AcrIF24 per Csy complex) in data set [5] came out at 1. Further, the stoichiometry N (AcrIF24 per Csy complex) in data set [6] was 2 and 1. In data set [7], this molecule yielded a Kd of 4.21 nM, a koff of 0.00118 s⁻¹ and a kon of 281000 M⁻¹ s⁻¹.
For the molecule “AcrIF24 Δmiddle domain (domain or fragment)”, the stoichiometry N in data set [8] was determined as 2.
In data set [9], “AcrIF24 co-expressed with the Csy complex (natural protein)” gave a stoichiometry N (AcrIF24 per Csy complex) of 1.
“GAGCGACTACGACATGAGCGCGCAGCTAAGACCGCCCGTAGATGCGTCGAGCGT [ssDNANS 54 nt]”: the binding signal (fold weaker than ssDNASP) in [10] and in data set [11] was 10 throughout.

B1: dsDNANS 54 bp (dsDNA)
DNA 1: GAGCGACTACGACATGAGCGCGCAGCTAAGACCGCCCGTAGATGCGTCGAGCGT
DNA 2: ACGCTCGACGCATCTACGGGCGGTCTTAGCTGCGCGCTCATGTCGTAGTCGCTC
As for B1, in the data set with Csy complex (label: 5'-FAM or 3'-FAM), the binding result was “no binding”.

B2: dsDNASP 54 bp (dsDNA)
DNA 1: GGAAGCCATCCAGGTAGACGCGGACATCAAGCCCGCCGTGAAGGTGCAGCTGCT
DNA 2: AGCAGCTGCACCTTCACGGCGGGCTTGATGTCCGCGTCTACCTGGATGGCTTCC
As for B2, the binding result with Csy complex (label: 5'-FAM or 3'-FAM on target strand, unlabelled in some assays) is “binds”.

For the origin of these results see PMC9001735, “Insights into the inhibition of type I-F CRISPR-Cas system by a multifunctional anti-CRISPR protein AcrIF24”.
